Test results from article PMC8989981, “Negative feedback of SNRK to circ-SNRK regulates cardiac function post-myocardial infarction” (Cell Death and Differentiation, 2021).

Molecular target: the molecule itself
Experiment: native gel or EMSA; Native-PAGE of total protein from NRCMs, blotted with anti-NOVA1

B1: NOVA1 (NOVA alternative splicing regulator 1) (natural protein, rat (endogenous in NRCMs), UniProt Q80WA4 1-474, looked up)
chain: MAAAPIQQNGTHTGVPIDLDPPDSRKRPLEAPPEAGSTKRTNTGEDGQYFLKVLIPSYAAGSIIGKGGQTIVQLQKETGATIKLSKSKDFYPGTTERVCLIQGTIEALNAVHGFIAEKIREMPQNVAKTEPVSILQPQTTVNPDRIKQVKIIVPNSTAGLIIGKGGATVKAIMEQSGAWVQLSQKPDGINLQERVVTVSGEPEQNRKAVELIIQKIQEDPQSGSCLNISYANVTGPVANSNPTGFPYANTAEVLPTAAAAAGLLGHANLAGVAAFPAVLSGFTGNDLVAITSALNTLASYGYNLNTLGLGLSQAAATGALAAAAASANPAAAAANLLATYASEASASGSTAGGTAGTFALGSLAAATAATNGYFGAASPLAASAILGTEKSTDGSKDVVEIAVPENLVGAILGKGGKTLVEYQELTGARIQISKKGEFVPGTRNRKVTITGTPAATQAAQYLITQRITYEQGVR
notes: NOVA1 (NOVA alternative splicing regulator 1), rat, as present in neonatal rat cardiomyocytes; also called protein NOVA1; source: endogenous, NRCMs (neonatal rat cardiomyocytes), in lysate / total protein
For B1, the “stoichiometry N” value was 2.
